Experimental data taken from patent publication US20240116985A1 (published 2024).
Starred links: 1 amine or outer side, 2 acyl side, 3 side chain; linkers in the order of their positions; H or OH if unused. Positions of bridges follow the written chain, without caps; N, C: chain ends. Non-standard residues stand in square brackets, D forms with d. Primed or numbered codes have the meaning given here. *: point of attachment. PyrS2″ = (S)-3-amino-1-((pent-4-en-1-yloxy)carbonyl)pyrrolidine-3-carboxylic acid (stapling residue), C=CCCCOC(=O)N1CC[C@@](N[*:1])(C(=O)[*:2])C1; RdN″ = (R)-4-(((allyloxy)carbonyl)(methyl)amino)-2-amino-2-methylbutanoic acid (stapling residue), C=CCOC(=O)N(C)CC[C@@](C)(N[*:1])C(=O)[*:2]; B5(4) = 2,2-bis(4-pentenyl)glycine = 2-amino-2-(pent-4-en-1-yl)hept-6-enoic acid (stitching residue), C=CCCCC(CCCC=C)(N[*:1])C(=O)[*:2]; PyrS(3) = (S)-1-((allyloxy)carbonyl)-3-aminopyrrolidine-3-carboxylic acid, stapling residue, C=CCOC(=O)N1CC[C@@](N[*:1])(C(=O)[*:2])C1; PyrS″ = (S)-1-((allyloxy)carbonyl)-3-aminopyrrolidine-3-carboxylic acid (stapling residue), C=CCOC(=O)N1CC[C@@](N[*:1])(C(=O)[*:2])C1; RdN = (R)-4-(((allyloxy)carbonyl)(methyl)amino)-2-amino-2-methylbutanoic acid, C=CCOC(=O)N(C)CC[C@@](C)(N[*:1])C(=O)[*:2]; PyrS = (S)-1-((allyloxy)carbonyl)-3-aminopyrrolidine-3-carboxylic acid, C=CCOC(=O)N1CC[C@@](N[*:1])(C(=O)[*:2])C1; B5(3) = 2,2-bis(4-pentenyl)glycine (stitching residue), C=CCCCC(CCCC=C)(N[*:1])C(=O)[*:2]; Phe(4-COOH) = N[C@@H](Cc1ccc(C(=O)O)cc1)C(=O)O; S7 = C[C@@](CCCCCC=[*:3])(N[*:1])C(=O)[*:2]; Bip = N[C@@H](Cc1ccc(-c2ccccc2)cc1)C(=O)O; Phe(2-Cl) = N[C@@H](Cc1ccccc1Cl)C(=O)O; Bta = N[C@@H](Cc1csc2ccccc12)C(=O)O; αAllylPro = C=CC[C@@]1(C(=O)O)CCCN1; tBuAla = CC(C)(C)C[C@H](N)C(=O)O; 3Pal = N[C@@H](Cc1cccnc1)C(=O)O; R8 = C=CCCCCCC[C@@](C)(N)C(=O)O; Aad = N[C@@H](CCCC(=O)O)C(=O)O; Thr(ol) = C[C@@H](O)[C@H](N)CO; Leu(ol) = CC(C)C[C@H](N)CO; Nle = CCCC[C@H](N)C(=O)O; Alaol = C[C@@H](CO)N*

T1: beta-catenin (Homo sapiens (Human), UniProt P35222 2-781)
T1 sequence: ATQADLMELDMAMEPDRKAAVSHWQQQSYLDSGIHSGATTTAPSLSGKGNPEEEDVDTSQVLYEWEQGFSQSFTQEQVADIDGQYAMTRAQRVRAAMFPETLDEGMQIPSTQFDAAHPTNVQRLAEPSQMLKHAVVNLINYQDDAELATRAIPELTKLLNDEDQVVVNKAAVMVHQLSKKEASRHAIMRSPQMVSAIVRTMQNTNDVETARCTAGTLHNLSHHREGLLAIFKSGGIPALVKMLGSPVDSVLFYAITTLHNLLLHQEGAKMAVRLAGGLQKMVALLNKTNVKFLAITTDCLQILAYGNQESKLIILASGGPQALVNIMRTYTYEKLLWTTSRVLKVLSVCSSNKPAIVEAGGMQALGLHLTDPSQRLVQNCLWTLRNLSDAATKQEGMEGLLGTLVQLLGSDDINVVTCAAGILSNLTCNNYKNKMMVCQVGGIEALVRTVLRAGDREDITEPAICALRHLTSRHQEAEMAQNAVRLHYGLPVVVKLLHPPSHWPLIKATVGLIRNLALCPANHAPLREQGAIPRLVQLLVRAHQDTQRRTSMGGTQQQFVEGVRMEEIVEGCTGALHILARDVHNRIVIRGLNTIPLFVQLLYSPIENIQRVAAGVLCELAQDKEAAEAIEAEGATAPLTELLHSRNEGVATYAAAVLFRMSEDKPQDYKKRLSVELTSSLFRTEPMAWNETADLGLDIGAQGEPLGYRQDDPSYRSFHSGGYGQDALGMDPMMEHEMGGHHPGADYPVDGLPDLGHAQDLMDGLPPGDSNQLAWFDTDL

T2: full-length beta-Catenin (Uniprot ID P35222) (Homo sapiens (Human), UniProt P35222 2-781)
T2 construct: The assay text says 'full-length'; also called B-Catenin; bCat
T2 sequence: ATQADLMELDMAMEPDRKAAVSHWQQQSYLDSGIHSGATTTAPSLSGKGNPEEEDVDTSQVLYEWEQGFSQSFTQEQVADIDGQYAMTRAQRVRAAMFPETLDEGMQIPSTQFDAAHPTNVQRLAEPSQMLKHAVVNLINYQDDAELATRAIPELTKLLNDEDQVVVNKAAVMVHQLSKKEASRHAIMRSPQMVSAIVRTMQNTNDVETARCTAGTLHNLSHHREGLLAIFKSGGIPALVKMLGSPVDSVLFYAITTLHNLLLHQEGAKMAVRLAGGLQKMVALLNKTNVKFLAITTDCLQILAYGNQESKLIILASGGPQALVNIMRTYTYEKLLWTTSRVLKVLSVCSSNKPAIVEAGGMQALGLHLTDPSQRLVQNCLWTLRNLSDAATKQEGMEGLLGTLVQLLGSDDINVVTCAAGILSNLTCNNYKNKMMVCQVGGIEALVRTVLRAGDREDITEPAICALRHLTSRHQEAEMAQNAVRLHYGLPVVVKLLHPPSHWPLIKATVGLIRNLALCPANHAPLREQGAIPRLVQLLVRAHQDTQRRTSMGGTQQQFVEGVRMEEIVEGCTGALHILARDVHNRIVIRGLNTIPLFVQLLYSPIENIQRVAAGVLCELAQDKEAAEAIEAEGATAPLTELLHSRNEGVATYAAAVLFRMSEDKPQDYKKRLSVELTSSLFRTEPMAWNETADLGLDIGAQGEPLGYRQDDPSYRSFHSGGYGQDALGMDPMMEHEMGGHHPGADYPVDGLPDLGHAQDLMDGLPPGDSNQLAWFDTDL


biological target: T1, beta-catenin; experiment: cell-based or functional assay

DLD1 TCF c2 BrightGlo % Inhibition (TCF/LEF luciferase reporter; 0.625 uM by plate map, replicate 1) [%]	DLD1 TCF c2 BrightGlo % Inhibition (TCF/LEF luciferase reporter; 0.625 uM by plate map, replicate 2) [%]	DLD1 TCF c2 BrightGlo % Inhibition (TCF/LEF luciferase reporter; 0.625 uM by plate map, replicate 3) [%]	DLD1 TCF c2 BrightGlo % Inhibition (TCF/LEF luciferase reporter; 1.25 uM by plate map, replicate 1) [%]	DLD1 TCF c2 BrightGlo % Inhibition (TCF/LEF luciferase reporter; 1.25 uM by plate map, replicate 2) [%]	DLD1 TCF c2 BrightGlo % Inhibition (TCF/LEF luciferase reporter; 1.25 uM by plate map, replicate 3) [%]	DLD1 TCF c2 BrightGlo % Inhibition (TCF/LEF luciferase reporter; 2.5 uM by plate map, replicate 1) [%]	DLD1 TCF c2 BrightGlo % Inhibition (TCF/LEF luciferase reporter; 2.5 uM by plate map, replicate 2) [%]	DLD1 TCF c2 BrightGlo % Inhibition (TCF/LEF luciferase reporter; 2.5 uM by plate map, replicate 3) [%]	DLD1 TCF c2 BrightGlo % Inhibition (TCF/LEF luciferase reporter; 5 uM by plate map, replicate 1) [%]	Binder
14.1	17.4	20.3	14	21.5	24	17.3	36.1	37.9	38.5	Ac-[αAllylPro]D[tBuAla][B5(3)]DDAAFN[PyrS2″][Phe(2-Cl)][Bta][Thr(ol)] (staple 1-4, 4-11) [I-1082]
20.2	13.7	15.3	16	13.8	12.3	14.6	19.8	7.9	24.9	Ac-[αAllylPro]D[tBuAla][B5(4)]DDAAFN[PyrS2″][Phe(2-Cl)][Bta][Leu(ol)] (staple 1-4, 4-11) [I-1080]
9.2	7.1	11.5	0.8	2.4	5.4	4.5	7.9	15.2	17.5	Ac-[αAllylPro]D[tBuAla][B5(3)]DDAAFN[PyrS2″][Phe(2-Cl)][Bta]-Alaol (staple 1-4, 4-11) [I-1081]

same assay, conditions: not given

DLD1 TCF c2 BrightGlo % Inhibition (TCF/LEF luciferase reporter; 5 uM by plate map, replicate 2) [%]	DLD1 TCF c2 BrightGlo % Inhibition (TCF/LEF luciferase reporter; 5 uM by plate map, replicate 3) [%]	DLD1 TCF c2 BrightGlo % Inhibition (TCF/LEF luciferase reporter; 10 uM by plate map, replicate 1) [%]	DLD1 TCF c2 BrightGlo % Inhibition (TCF/LEF luciferase reporter; 10 uM by plate map, replicate 2) [%]	DLD1 TCF c2 BrightGlo % Inhibition (TCF/LEF luciferase reporter; 10 uM by plate map, replicate 3) [%]	DLD1 TCF c2 BrightGlo % Inhibition (TCF/LEF luciferase reporter; 20 uM by plate map, replicate 1) [%]	DLD1 TCF c2 BrightGlo % Inhibition (TCF/LEF luciferase reporter; 20 uM by plate map, replicate 2) [%]	DLD1 TCF c2 BrightGlo % Inhibition (TCF/LEF luciferase reporter; 20 uM by plate map, replicate 3) [%]	Binder
56.2	62	63.9	71	75	76.5	77.1	79.9	Ac-[αAllylPro]D[tBuAla][B5(3)]DDAAFN[PyrS2″][Phe(2-Cl)][Bta][Thr(ol)] (staple 1-4, 4-11) [I-1082]
31	24.4	42.4	42.2	38.1	51.4	56.9	51.8	Ac-[αAllylPro]D[tBuAla][B5(4)]DDAAFN[PyrS2″][Phe(2-Cl)][Bta][Leu(ol)] (staple 1-4, 4-11) [I-1080]
23.8	31	45.6	49.8	55.3	67.2	69.3	72.3	Ac-[αAllylPro]D[tBuAla][B5(3)]DDAAFN[PyrS2″][Phe(2-Cl)][Bta]-Alaol (staple 1-4, 4-11) [I-1081]

biological target: T2, full-length beta-Catenin (Uniprot ID …); experiment: AlphaScreen competition vs biotin-TCF4(10-53) on full-length beta-catenin
Protocol: Equal volume of the titrated peptide was added to the plate and incubated for 15 minutes at 20° C. Then 4 uL of donor and 4 uL acceptor beads at 10 ug/mL were added to the plate, for a 16 uL reaction pool and protected from light for 60 minutes at 20° C. prior to read. Reads were performed on a CLARIOstar plate reader (BMG Labtech) in duplicate, and data were fitted to a 1:1 binding model with hill slope using an in-house script. All provided concentrations are final concentrations.

Binder	EC50 [µM]
Ac-FDA[R8]D[Nle]AAFV[PyrS]FWQ-NH2 (staple 4-11, Stapled peptide composition) [I-13]	≥ 10
Ac-FDA[R8]D[Bip]AAFV[PyrS″]FWQ-NH2 (staple 4-11; not fully specified; printed as Ac-Phe-Asp-Ala-R8-Asp-Bip-Ala-Ala-Phe-Val-PyrS-Phe-Trp-Gln-NH2, Stapled peptide composition) [I-11]	≥ 10
Ac-FDA[RdN″]DDAAFV[S7]FWQ-NH2 (staple 4-11, Stapled peptide composition) [I-1]	≥ 10
Ac-FDA[R8]DDAEFV[PyrS]FWQ-NH2 (staple 4-11; also: later-eluting HPLC isomer peak, Stapled peptide composition) [I-22]	≥ 10
Ac-FDA[R8]DEAAFV[PyrS″]FWQ-NH2 (staple 4-11; not fully specified; printed as Ac-Phe-Asp-Ala-R8-Asp-Glu-Ala-Ala-Phe-Val-PyrS-Phe-Trp-Gln-NH2, Stapled peptide composition) [I-4]	5.89
Ac-FDA[R8]D[Phe(4-COOH)]AAFV[PyrS″]FWQ-NH2 (staple 4-11, Stapled peptide composition) [I-8]	≥ 10
Ac-FDA[R8]D[Bip]AAFV[PyrS(3)]FWQ-NH2 (staple 4-11, Stapled peptide composition) [I-12]	≥ 10
Ac-FDA[R8]D[3Pal]AAFV[PyrS″]FWQ-NH2 (staple 4-11, Stapled peptide composition) [I-10]	≥ 10
Ac-FDA[R8]D[Aad]AAFV[PyrS(3)]FWQ-NH2 (staple 4-11; also: earlier-eluting HPLC isomer, E/Z not given here, Stapled peptide composition) [I-5]	≥ 10

More lines, now with the values ahead:

EC50 [µM]	Binder
9.76	Ac-FDA[R8]D[Nle]AAFV[PyrS]FWQ-NH2 (staple 4-11; not fully specified; printed as Ac-Phe-Asp-Ala-R8-Asp-nLeu-Ala-Ala-Phe-Val-PyrS-Phe-Trp-Gln-NH2, Stapled peptide composition) [I-14]
≥ 10	Ac-FDA[R8]D[Phe(4-COOH)]AAFV[PyrS″]FWQ-NH2 (staple 4-11, Stapled peptide composition) [I-7]
≥ 10	Ac-FDA[R8]DDAEFV[PyrS]FWQ-NH2 (staple 4-11; not fully specified; printed as Ac-Phe-Asp-Ala-R8-Asp-Asp-Ala-Glu-Phe-Val-PyrS-Phe-Trp-Gln-NH2, Stapled peptide composition) [I-21]
9.13	Ac-FDA[R8]DEAAFV[PyrS″]FWQ-NH2 (staple 4-11, Stapled peptide composition) [I-3]
≥ 10	Ac-FDA[R8]DDADFV[PyrS]FWQ-NH2 (staple 4-11; not fully specified; printed as Ac-Phe-Asp-Ala-R8-Asp-Asp-Ala-Asp-Phe-Val-PyrS-Phe-Trp-Gln-NH2, Stapled peptide composition) [I-19]
≥ 10	Ac-FDA[R8]DDADFV[PyrS]FWQ-NH2 (staple 4-11; not fully specified; printed as Ac-Phe-Asp-Ala-R8-Asp-Asp-Ala-Asp-Phe-Val-PyrS-Phe-Trp-Gln-NH2, Stapled peptide composition) [I-20]
≥ 10	Ac-FDA[RdN]DDAAFV[S7]FWQ-NH2 (staple 4-11; also: later-eluting isomer of same sequence as I-1, Stapled peptide composition) [I-2]
≥ 10	Ac-FDA[R8]D[3Pal]AAFV[PyrS″]FWQ-NH2 (staple 4-11, Stapled peptide composition) [I-9]
6.5	Ac-FDA[R8]D[Aad]AAFV[PyrS]FWQ-NH2 (staple 4-11, Stapled peptide composition) [I-6]
